Experiments:
[1] = test system: human LPA gene (Genbank number: NM_005577.4); assay: Inhibitory activity against LPA mRNA, psiCHECK-2 dual-luciferase reporter vector in Huh7 cells; format: cell-based; details: Huh7 cells transfected with LPA_psiCHECK-2 plasmid, RNAiMAX transfection
Experimental: A stock solution was prepared by dissolving in PBS and stored at -20 °C.
The human LPA gene (Genbank number: NM_005577.4) was cloned into the psiCHECK™-2 vector.
Huh7 cells were cultured in DMEM (Gibco-11995-065, 500 mL) medium, supplemented with FBS (ExCellBio-FSP500, 57 mL), Penicillin-Streptomycin solution (Hyclone-SV30010, 5.7 mL), GlutaMAX™ (Gibco-35050-061, 5.7 mL) and Non-Essential Amino Acids Solution (Gibco-11140050, 5.7 mL).
On Day 1, a method for transfection of the LPA_PSICHECK (TM)-2 plasmid is briefly described as follows: Huh7 cells were washed with DPBS, followed by digestion with 0.05% trypsin, gently pipetted into single cells in DMEM containing 10% FBS, and counted. Plasmid DNA was transferred into Huh7 cells using Fugene HD. The transfected cells were seeded into 96-well plates at a density of 10,000 cells per well, with 100 µL culture medium per well. The cells were incubated overnight in a 5% CO2 incubator at 37 °C.
On Day 2, the test compounds were diluted serially with PBS to 3 concentrations.
RNAiMAX transfection reagent was prepared by blending homogeneously with Opti-MEM at a ratio of RNAiMAX: Opti-MEM=3:47 in a 15 mL centrifuge tube as needed. The compounds were mixed with the RNAiMAX/Opti-MEM (1:1) and incubated for 15 min. The compound-containing RNAiMAX/Opti-MEM mixture was diluted 10-fold with fresh medium and blended homogeneously.
The medium in each well was aspirated, and then 100 µL of the fresh compound-containing medium was added, and then incubated in a 5% CO2, 37 °C incubator.
Experimental procedures refer to DUAL-GLO® Dual Luciferase Assay System instructions, briefly described as follows: Taking out the cells from the incubator, aspirating and discarding the supernatant, adding 75µL fresh culture medium and 75µL detection reagent, shaking for 10 minutes in the dark, and after the cells had been fully lysed, transfering100µL sample to an opaque whiteboard for detecting the Firefly luminescence signal; adding 50 µL Dual-Glo®Stop & Glo® test reagent to each well and detecting the Renilla luciferase signal after shaking for 10 minutes in the dark. The ratio of the reporter signal to the internal control reporter signal was calculated for each well.
[formula] % Inhibition = (1-Sampleratio/RNAiMAXcontrolratio) × 100% [formula]

[2] = test system: hPBMCs; assay: Immunogenicity test in hPBMCs (IL-6 and TNF-α ELISA of supernatant); format: cell-based, human; details: donor 1 hPBMCs, 18-20 h
Experimental: 1 Experimental material • 1.1 Double-stranded siRNA conjugates • 1.2 hPBMCs, purchased from Shanghai Sailybio Medical Co., LTD. • 1.3 Main reagents: Penicillin-Streptomycin (Cat. No.: 15140122), RNase-free water (Cat. No.: AM9938), IL-6 ELISA kit (Cat. No.: 555220), TNF-α ELISA kit (Cat. No.: 555212), LPS (Cat. No.: L2630), etc. 2 Experimental method • 2.1 Compound Preparation: Compounds were prepared as stock solutions with enzyme-free water. Compound weight = powder weight * purity. The concentration of prepared solutions was 900 µg/mL, followed by three-fold serial dilution with enzyme-free water. Each concentration was diluted 10-fold with 1640 medium, resulting in a final enzyme-free water content of 5.0%. • 2.2 Experimental procedure: • 2.2.1 PBMC cells were resuscitated one day in advance and incubated overnight in 1640 complete medium. • 2.2.2 On the day of the experiment, PBMC cells were centrifuged at 300 × g for 8 minutes, and the cell density was adjusted to 1.6 × 10^6 mL with 1640 complete medium. The cells were then added to a 96-well plate, 125 µL per well, and incubated in a 37 °C, 5% CO2 incubator for 15 minutes. • 2.2.3 The diluted test compounds were added to the 96-well plate according to the plate map, all in duplicate, 125 µL for each well; the positive control group and the blank group were added with an equal volume of 1640 complete culture medium containing the same amount of enzyme-free water. • 2.2.4 After gently shaking, the well plates were incubated in an incubator at 37 °C for 18-20 h. The supernatant was collected by centrifugation, and secretions of TNF-α and IL-6 were detected by ELISA. • 2.2.5 Data were analyzed using GraphPad Prism 8 software. 3 Experimental results Table 10. IL-6 and TNF-α levels in the cell supernatant of donor 1 hPBMCs treated with different doses of test compounds

Substance	EC50 [1] [nM]	IL-6 ([2]; 5 µg/mL) [pg/mL]	TNF alpha ([2]; 5 µg/mL) [pg/mL]	IL-6 ([2]; 15 µg/mL) [pg/mL]	TNF alpha ([2]; 15 µg/mL) [pg/mL]	IL-6 ([2]; 45 µg/mL) [pg/mL]	TNF alpha ([2]; 45 µg/mL) [pg/mL]
Z1: siRNA conjugate: sense SEQ ID NO:27, ligand D08 at 3' end of sense strand, antisense SEQ ID NO:56 (sense CCCTTATTGTTATACG; antisense ATCCCTCGTANAACAATAAGGGGCTGTT; 2'-OMe/2'-F modified, ligand at sense 3' end, full pattern not given here)	0.12	–	–	–	–	–	–
Z2: siRNA conjugate: sense SEQ ID NO:28, ligand D08 at 3' end of sense strand, antisense SEQ ID NO:56 (sense CCCCTTATTGTTATAC; antisense ATCCCTCGTANAACAATAAGGGGCTGTT; 2'-OMe/2'-F modified, ligand at sense 3' end, full pattern not given here)	0.48	–	–	–	–	–	–
Z6: siRNA conjugate: sense SEQ ID NO:27, ligand D08 at 3' end of sense strand, antisense SEQ ID NO:57 (sense CCCTTATTGTTATACG; antisense TCGTANAACAATAAGGGGCTGTT; ligand D08 at sense 3' end; listed as RNA; modified_base 1..2: mod_base = OTHER; note = 2'-O-methylcytidine; modified_base 3: mod_base = OTHER; modified_base 4: mod_base = OTHER; note = 2'-O-methyluridine; modified_base 5: mod_base = OTHER; note = 2'-fluorou; modified_base 1: mod_base = OTHER; note = E-type vinylphosphonate-modified 2'-O-methyluridine; modified_base 2: mod_base = OTHER; note = 2'-fluorocytidine; note = 2'-O-methylguanosine; modified_base 4: mo)	0.42	–	–	–	–	–	–
Z7: siRNA conjugate: sense SEQ ID NO:27, ligand D08 at 3' end of sense strand, antisense SEQ ID NO:58 (sense CCCTTATTGTTATACG; antisense TCGTANAACAATAAGGGGCTGTT; ligand D08 at sense 3' end; listed as RNA; modified_base 1..2: mod_base = OTHER; note = 2'-O-methylcytidine; modified_base 3: mod_base = OTHER; modified_base 4: mod_base = OTHER; note = 2'-O-methyluridine; modified_base 5: mod_base = OTHER; note = 2'-fluorou; modified_base 1: mod_base = OTHER; modified_base 2: mod_base = OTHER; note = 2'-fluorocytidine; note = 2'-O-methylguanosine)	2.41	–	–	–	–	–	–
Z38: siRNA conjugate: sense SEQ ID NO:49, ligand D01 at 3' end of sense strand, antisense SEQ ID NO:77 (sense CAGCCCCTTATTGTTATACGA; antisense NCGTATNACAATAAGGGGCNGTT; ligand D01 at sense 3' end; listed as RNA; modified_base 1: mod_base = OTHER; note = 2'-O-methylcytidine; modified_base 2: mod_base = OTHER; note = 2'-O-methyladenosine; modified_base 3: mod_base = OTHER; note = 2'-O-methylguanosine; modified_base 4..7: mod_base = OTHER; note = 2'-O-me; note = n is mDVPU; note = 2'-deoxycytidine; modified_base 4: mod_base = OTHER; note = 2'-O-methyluridine;)	–	1281.4	33.5	1257.1	34.8	1268.3	34.4
Z39: siRNA conjugate: sense SEQ ID NO:49, ligand D21 at 3' end of sense strand, antisense SEQ ID NO:77 (sense CAGCCCCTTATTGTTATACGA; antisense NCGTATNACAATAAGGGGCNGTT; ligand D21 at sense 3' end; listed as RNA; modified_base 1: mod_base = OTHER; note = 2'-O-methylcytidine; modified_base 2: mod_base = OTHER; note = 2'-O-methyladenosine; modified_base 3: mod_base = OTHER; note = 2'-O-methylguanosine; modified_base 4..7: mod_base = OTHER; note = 2'-O-me; note = n is mDVPU; note = 2'-deoxycytidine; modified_base 4: mod_base = OTHER; note = 2'-O-methyluridine;)	–	1333.6	31.4	1304.8	32.6	1297.0	33.3
Z44: siRNA conjugate: sense SEQ ID NO:51, ligand D01 at 3' end of sense strand, antisense SEQ ID NO:82 (sense CCTGCCAAGCTTGGTCATCTA; antisense NAGATGNCCAAGCTTGGCNGGTT; ligand D01 at sense 3' end; listed as RNA; modified_base 1..2: mod_base = OTHER; note = 2'-O-methylcytidine; modified_base 3: mod_base = OTHER; note = 2'-O-methyluridine; modified_base 4: mod_base = OTHER; note = 2'-O-methylguanosine; modified_base 5..6: mod_base = OTHER; note = 2'-O-m; modified_base 1: mod_base = OTHER; note = n is mDVPU; modified_base 2: mod_base = OTHER; note = 2'-deoxyadenosine; note = 2'-O-methyladenosi)	–	1326.7	34.6	1331.0	35.2	1354.7	35.8
Z45: siRNA conjugate: sense SEQ ID NO:50, ligand D01 at 3' end of sense strand, antisense SEQ ID NO:82 (sense CCTGCCAAGCTTGGTCATCTA; antisense NAGATGNCCAAGCTTGGCNGGTT; ligand D01 at sense 3' end; listed as RNA; modified_base 1..2: mod_base = OTHER; note = 2'-O-methylcytidine; modified_base 3: mod_base = OTHER; note = 2'-O-methyluridine; modified_base 4: mod_base = OTHER; note = 2'-O-methylguanosine; modified_base 5..6: mod_base = OTHER; note = 2'-O-m; modified_base 1: mod_base = OTHER; note = n is mDVPU; modified_base 2: mod_base = OTHER; note = 2'-deoxyadenosine; note = 2'-O-methyladenosi)	–	1327.5	35.3	1321.5	35.1	1321.4	34.9
